Patent US20170298146A1 (MODIQUEST B V, published 2017)
Non-standard residues stand in square brackets, D forms with d. No end group written: not given here. Cit = NC(=O)NCCC[C@H](N)C(=O)O

Tests used:
[1] = target: T1, human recombinant histone H2A (human); assay: ELISA, 0.016 ug/well
T1 construct: Non-deiminated
Method: (§1) CFC-1 and CFC-0 were coated at the same concentration and served as positive and negative controls, respectively, for specific anti-citrulline reactivity and as coating controls. Non-coated wells were used to test for aspecific binding of the antibodies. […] Detection of bound anti-citrulline antibodies was performed by incubating the wells with rabbit-anti-human-HRP (1:2000) for one hour at RT followed by incubation with TMB substrate. The resulting OD (y-axis) is a measure for antibody binding. H1=recombinant histone 1; H1/p2=huPAD2 recombinant histone 1; H1/p4=huPAD4 recombinant histone 1 and so forth (x-axis).

[2] = target: T2, huPAD2 deiminated human recombinant histone H2A (human); assay: ELISA, 0.016 ug/well
T2 construct: also called H2A/p2
Method: as §1

[3] = target: T3, huPAD4 deiminated human recombinant histone H2A (human); assay: ELISA, 0.016 ug/well
T3 construct: also called H2A/p4; huPAD4 deiminated histone 2A
Method: as §1

[4] = target: T4, human recombinant histone H2B (human); assay: ELISA, 0.016 ug/well
T4 construct: Non-deiminated
Method: as §1

[5] = target: T5, huPAD2 deiminated human recombinant histone H2B (human); assay: ELISA, 0.016 ug/well
T5 construct: also called H2B/p2
Method: as §1

[6] = target: T6, huPAD4 deiminated human recombinant histone H2B (human); assay: ELISA, 0.016 ug/well
T6 construct: also called H2B/p4
Method: as §1

[7] = target: T7, huPAD2 deiminated human recombinant histone H3 (human); assay: ELISA, 0.016 ug/well
T7 construct: also called H3/p2
Method: as §1

[8] = target: T8, huPAD4 deiminated human recombinant histone H3 (human); assay: ELISA, 0.016 ug/well
T8 construct: also called H3/p4
Method: as §1

[9] = target: human recombinant histone H4 (human, UniProt P62805 2-103); assay: ELISA, 0.016 ug/well
Method: as §1

CFC-1 [10] = target: T9, CFC-1; assay: ELISA, 0.016 ug/well
T9 construct: Positive control for anti-citrulline reactivity; also called cfc1 XG
Method: as §1

CFC-1 [11] = target: T9, CFC-1; assay: peptide ELISA, 2 ug/well
Method: (§2) Biotin and citrulline-containing peptides derived from fibrinogen and vimentin were immobilized on NEUTRAVIDIN®-coated 96-well ELISA plates (0.3 μg/well). CFC-1 and CFC-0 were coated at the same concentration and served as positive and negative controls respectively for specific anti-citrulline reactivity and as coating controls. Non-coated wells were used to test for aspecific binding of the antibodies. […] Detection of bound anti-citrulline antibodies was performed by incubating the wells with rabbit-anti-human-HRP (1:2000) for one hour at RT followed by incubation with TMB substrate. The resulting OD (y-axis) is a measure for antibody binding.
(§3) Biotin-labeled and citrulline-containing fibrinogen and vimentin peptides (Table 5) were also tested for reactivity with the therapeutic antibodies. Peptides were coated on 96-well NEUTRAVIDIN®-ELISA plates.

msFibα XH = target: T10, msFibα XH (mouse, X at position 15 is citrulline; biotin label); assay: peptide ELISA, 2 ug/well
T10 peptide: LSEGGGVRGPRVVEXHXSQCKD
Method: as §2, §3

msFibα XG = target: T11, msFibα XG (mouse, X at position 8 is citrulline; biotin label); assay: peptide ELISA, 2 ug/well
T11 peptide: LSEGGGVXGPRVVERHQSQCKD
Method: as §2, §3

huFibα XH = target: T12, huFibα XH (human, X at position 15 is citrulline; biotin label); assay: peptide ELISA, 2 ug/well
T12 peptide: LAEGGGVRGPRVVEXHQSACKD
Method: as §2, §3

huFibα XG = target: T13, huFibα XG (human, X at position 8 is citrulline; biotin label); assay: peptide ELISA, 2 ug/well
T13 peptide: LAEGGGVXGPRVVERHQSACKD
Method: as §2, §3

msFibβ XG = target: T14, msFibβ XG (mouse, also: biotin label); assay: peptide ELISA, 2 ug/well
T14 peptide: EPTDSLDA[Cit]GHRPVDRR
Method: as §2, §3

msVim XS/XL = target: T15, msVim XS/XL (mouse, also: biotin label); assay: peptide ELISA, 2 ug/well
T15 construct: also called mouse vimentin peptide
T15 peptide: YVT[Cit]SSAV[Cit]L[Cit]SSVP
Method: as §2, §3

[12] = target: T16, Histone 2A citrulline-containing peptide 2 (human, also: biotin label); assay: peptide ELISA, 0.4 ug/well
T16 peptide: AKAKS[Cit]SSRAGL
Method: as §2, with “histone 2A” for “fibrinogen and vimentin”
(§4) Ninety-six-well ELISA plates were coated with NEUTRAVIDIN® (0.1 μg/well) by overnight incubation at 4° C. Wells were washed five times with PBS-TWEEN®-20 (PBS-T) and blocked by a one-hour incubation with PBS-T+1% Bovine serum albumin (BSA) at room temperature (RT). After five more washes with PBS-T, wells were incubated for one hour at RT with histone-derived citrulline and biotin-containing peptides (0.3 μg/well). […] Wells were washed five times with PBS-T and incubated with rabbit-anti-human-HRP (1:2000) for one hour at RT followed by five washes with PBS-T and three wash steps with PBS. Wells were incubated for five minutes with TMB substrate before stopping the reaction with 2 M H₂SO₄. Optical density was measured by 450 nm and is a measure for the affinity of the antibodies used.

[13] = target: T17, Histone 2A citrulline-containing peptide 5 (human, also: biotin label); assay: peptide ELISA, 0.4 ug/well
T17 peptide: VGRVH[Cit]LLRKGN
Method: as §2, with “histone 2A” for “fibrinogen and vimentin”
as §4

[14] = target: T18, Histone 2A citrulline-containing peptide 6 (human, also: biotin label); assay: peptide ELISA, 0.4 ug/well
T18 peptide: VHRLL[Cit]KGNYSE
Method: as §2, with “histone 2A” for “fibrinogen and vimentin”
as §4

[15] = target: T19, Histone 2A citrulline-containing peptide 9 (human, also: biotin label); assay: peptide ELISA, 0.4 ug/well
T19 peptide: DNKKT[Cit]IIPRHL
Method: as §2, with “histone 2A” for “fibrinogen and vimentin”
as §4

[16] = target: T20, Histone 2A citrulline-containing peptide 1 (human, also: biotin label); assay: peptide ELISA, 0.000128 ug/well
T20 construct: also called AAASGXGKQGGK
T20 peptide: AAASG[Cit]GKQGGK
Method: as §2, with “histone 2A” for “fibrinogen and vimentin”
as §4

[17] = target: T21, Histone 2A citrulline-containing peptide 8 (human, also: biotin label); assay: peptide ELISA, 0.000128 ug/well
T21 peptide: AGNAA[Cit]DNKKTR
Method: as §2, with “histone 2A” for “fibrinogen and vimentin”
as §4

B1: RhmAb2.102 (antibody, human IgG1, lambda)
heavy: not shown
light: QSVLTQPPSMSAAPGQKVTISCSGSSSNIGNNYVSWYQQVPGTAPKLLIYDDNKRPSGIPGRFSGSKSATSATLGITGLQAGDEADYYCGSWDDNLSVVLFGGGTKLTVLGQPKAAPSVTLFPPSSEELQANKATLVCLISDFYPGAVTVAWKADSSPVKAGVETTTPSKQSNNKYAASSYLSLTPEQWKSHRSYSCQVTHEGSTVEKTVAPTECS
notes: Human IgG1 lambda; also called Rhm2.102
OD [1]: 0.057 OD | OD [2]: 0.628 OD | OD [3]: 0.426 OD | OD [4]: 0.065 OD | OD [5]: 0.052 OD | OD [6]: 0.052 OD | OD [7]: 0.155 OD | OD [8]: 0.076 OD | OD [9]: 0.061 OD | OD (CFC-1 [10]): 0.702 OD | OD (CFC-1 [11]): 3.97 OD | OD (msFibα XH): 0.091 OD | OD (msFibα XG): 1.9 OD | OD (huFibα XH): 0.116 OD | OD (huFibα XG): 1.51 OD | OD (msFibβ XG): 3.15 OD | OD (msVim XS/XL): 2.77 OD | OD [12]: 0.136 OD | OD [13]: 0.082 OD | OD [14]: 0.333 OD | OD [15]: 0.057 OD | OD [16]: 0.128 OD | OD [17]: 0.055 OD
